Here are results for 38 molecules from patent publication US10919943B2, “Mutant proteins enabling agrochemical control of plant gene expression” (The Regents of the University of California, priority 2016, dated 2021).

For the test, the system named is HAB1. The test is described as follows: Yeast two hybrid of pBD-PYR1 site saturation mutants with pACT-HAB1 on 10 μM ABA, β-galactosidase staining. In kind it is cell-based, Arabidopsis. More on the design: key: x: Mutations in PYR1 that disrupt ABA-induced binding to PYR1 to HAB1. The settings on record: S. cerevisiae Y190, 10 μM ABA; dead = lack of visible staining in comparison to wild type control. From the text:
To systematically identify mutations in PYR1 that disrupt its binding to HAB1, we utilized a collection of saturating mutations that contain all possible single amino acid substitutions in 24 conserved interface residues involved in binding HAB1, which was previously constructed for the purpose of engineering constitutively active ABA receptor variants (Mosquna et al., 2011). The interface residues previously mutagenized in this collection are the following: H60, F61, I62, K63, I84, S85, G86, L87, P88, A89, H115, R116, L117, P148, G150, N151, D154, D155, T156, M158, F159, T162, L166, K170. This set was made by mutagenizing a pBD-PYR1 template that encodes a GAL4-DNA binding domain fusion to PYR1, which can be used to assess receptor-HAB1 binding in S. cerevisiae strains co-transformed with pACT-HAB1, which expresses a GAL4 activation domain fusion to HAB1. Mutant pBD-PYR1 clones from the collection are maintained in S. cerevisiae strain Y190 co-transformed with pACT-HAB1. The test strains were spotted onto agar plates containing synthetic dextrose dropout media lacking leucine and tryptophan [SD (-Leu, -Trp)] medium supplemented with 10 μM ABA. After incubating the test plates at 30° C. for two days, colonies were chloroform lysed and stained to reveal […] expression levels and “dead” mutants were defined by lack of visible staining in comparison to a wild type control. This effort defined 237 mutations that disrupt ABA-induced binding of PYR1 to HAB1 (Table 1). Premade yeast drop out supplements (Clontech) were utilized in this and other examples for media preparation, amino acids and other standard chemicals were purchased from Sigma-Aldrich (USA). The naturally occurring (+)-ABA isomer was used in all experiments and purchased from Biosynth Ag (Switzerland).

Where a chain is given by its changes, count along the chain named. Names and notes keep the numbering of the source.

B1: G86A: PYR1 mutant (protein, UniProt O49686 1-191, looked up, variant G86A)
Abscisic acid receptor PYR1: MPSELTPEERSELKNSIAEFHTYQLDPGSCSSLHAQRIHAPPELVWSIVRRFDKPQTYKHFIKSCSVEQNFEMRVGCTRDVIVISALPANTSTERLDILDDERRVTGFSIIGGEHRLTNYKSVTTVHRFEKENRIWTVVLESYVVDMPEGNSEDDTRMFADTVVKLNLQKLATVAEAMARNSGDGSGSQVT
B1: the “Mutations in PYR1 that disrupt ABA-induced binding to PYR1 to HAB1” value (“Mutations” for short) is recorded as “x”.

B2: G86W: PYR1 mutant (protein, UniProt O49686 1-191, looked up, variant G86W)
Abscisic acid receptor PYR1: B1 Abscisic acid receptor PYR1 with A86W
Take B2: the “Mutations” value was “x”.

B3: L87E: PYR1 mutant (protein, UniProt O49686 1-191, looked up, variant L87E)
Abscisic acid receptor PYR1: B1 Abscisic acid receptor PYR1 with A86G, L87E
For the molecule B3, the “Mutations” value is “x”.

B4: G86M: PYR1 mutant (protein, UniProt O49686 1-191, looked up, variant G86M)
Abscisic acid receptor PYR1: B1 Abscisic acid receptor PYR1 with A86M
As to B4, the “Mutations” value was “x”.

B5: L87K: PYR1 mutant (protein, UniProt O49686 1-191, looked up, variant L87K)
Abscisic acid receptor PYR1: B1 Abscisic acid receptor PYR1 with A86G, L87K
For the molecule B5, the “Mutations” value is “x”.

B6: L87H: PYR1 mutant (protein, UniProt O49686 1-191, looked up, variant L87H)
Abscisic acid receptor PYR1: B1 Abscisic acid receptor PYR1 with A86G, L87H
In the case of B6, the “Mutations” value is reported as “x”.

B7: P88R: PYR1 mutant (protein, UniProt O49686 1-191, looked up, variant P88R)
Abscisic acid receptor PYR1: B1 Abscisic acid receptor PYR1 with A86G, P88R
As for B7, the “Mutations” value is reported as “x”.

B8: L87N: PYR1 mutant (protein, UniProt O49686 1-191, looked up, variant L87N)
Abscisic acid receptor PYR1: B1 Abscisic acid receptor PYR1 with A86G, L87N
With B8, the “Mutations” value was “x”.

B9: G86Q: PYR1 mutant (protein, UniProt O49686 1-191, looked up, variant G86Q)
Abscisic acid receptor PYR1: B1 Abscisic acid receptor PYR1 with A86Q
Regarding B9, the “Mutations” value is recorded as “x”.

B10: G86I: PYR1 mutant (protein, UniProt O49686 1-191, looked up, variant G86I)
Abscisic acid receptor PYR1: B1 Abscisic acid receptor PYR1 with A86I
For the molecule B10, the “Mutations” value is given as “x”.

B11: P88M: PYR1 mutant (protein, UniProt O49686 1-191, looked up, variant P88M)
Abscisic acid receptor PYR1: B1 Abscisic acid receptor PYR1 with A86G, P88M
For B11, the “Mutations” value is given as “x”.

B12: G86P: PYR1 mutant (protein, UniProt O49686 1-191, looked up, variant G86P)
Abscisic acid receptor PYR1: B1 Abscisic acid receptor PYR1 with A86P
As to B12, the “Mutations” value is “x”.

B13: G86V: PYR1 mutant (protein, UniProt O49686 1-191, looked up, variant G86V)
Abscisic acid receptor PYR1: B1 Abscisic acid receptor PYR1 with A86V
Turning to B13, the “Mutations” value is given as “x”.

B14: P88L: PYR1 mutant (protein, UniProt O49686 1-191, looked up, variant P88L)
Abscisic acid receptor PYR1: B1 Abscisic acid receptor PYR1 with A86G, P88L
On to B14, for which the “Mutations” value was “x”.

B15: G86T: PYR1 mutant (protein, UniProt O49686 1-191, looked up, variant G86T)
Abscisic acid receptor PYR1: B1 Abscisic acid receptor PYR1 with A86T
As to B15, the “Mutations” value was “x”.

B16: L87Y: PYR1 mutant (protein, UniProt O49686 1-191, looked up, variant L87Y)
Abscisic acid receptor PYR1: B1 Abscisic acid receptor PYR1 with A86G, L87Y
As to B16, the “Mutations” value is recorded as “x”.

B17: G86C: PYR1 mutant (protein, UniProt O49686 1-191, looked up, variant G86C)
Abscisic acid receptor PYR1: B1 Abscisic acid receptor PYR1 with A86C
Regarding B17, the “Mutations” value was “x”.

B18: L87T: PYR1 mutant (protein, UniProt O49686 1-191, looked up, variant L87T)
Abscisic acid receptor PYR1: B1 Abscisic acid receptor PYR1 with A86G, L87T
Consider B18, for which the “Mutations” value is listed as “x”.

B19: L87W: PYR1 mutant (protein, UniProt O49686 1-191, looked up, variant L87W)
Abscisic acid receptor PYR1: B1 Abscisic acid receptor PYR1 with A86G, L87W
Take B19: the “Mutations” value is “x”.

B20: G86N: PYR1 mutant (protein, UniProt O49686 1-191, looked up, variant G86N)
Abscisic acid receptor PYR1: B1 Abscisic acid receptor PYR1 with A86N
For the molecule B20, the “Mutations” value is on record as “x”.

B21: G86F: PYR1 mutant (protein, UniProt O49686 1-191, looked up, variant G86F)
Abscisic acid receptor PYR1: B1 Abscisic acid receptor PYR1 with A86F
For the molecule B21, the “Mutations” value is on record as “x”.

B22: P88N: PYR1 mutant (protein, UniProt O49686 1-191, looked up, variant P88N)
Abscisic acid receptor PYR1: B1 Abscisic acid receptor PYR1 with A86G, P88N
For the molecule B22, the “Mutations” value was “x”.

B23: G86R: PYR1 mutant (protein, UniProt O49686 1-191, looked up, variant G86R)
Abscisic acid receptor PYR1: B1 Abscisic acid receptor PYR1 with A86R
Take B23: the “Mutations” value was “x”.

B24: L87G: PYR1 mutant (protein, UniProt O49686 1-191, looked up, variant L87G)
Abscisic acid receptor PYR1: B1 Abscisic acid receptor PYR1 with A86G, L87G
For B24, the “Mutations” value is “x”.

B25: G86S: PYR1 mutant (protein, UniProt O49686 1-191, looked up, variant G86S)
Abscisic acid receptor PYR1: B1 Abscisic acid receptor PYR1 with A86S
Turning to B25, the “Mutations” value is listed as “x”.

B26: L87D: PYR1 mutant (protein, UniProt O49686 1-191, looked up, variant L87D)
Abscisic acid receptor PYR1: B1 Abscisic acid receptor PYR1 with A86G, L87D
On to B26, for which the “Mutations” value is given as “x”.

B27: L87R: PYR1 mutant (protein, UniProt O49686 1-191, looked up, variant L87R)
Abscisic acid receptor PYR1: B1 Abscisic acid receptor PYR1 with A86G, L87R
As for B27, the “Mutations” value is “x”.

B28: L87A: PYR1 mutant (protein, UniProt O49686 1-191, looked up, variant L87A)
Abscisic acid receptor PYR1: B1 Abscisic acid receptor PYR1 with A86G, L87A
Consider B28, for which the “Mutations” value is recorded as “x”.

B29: P88Q: PYR1 mutant (protein, UniProt O49686 1-191, looked up, variant P88Q)
Abscisic acid receptor PYR1: B1 Abscisic acid receptor PYR1 with A86G, P88Q
Turning to B29, the “Mutations” value was “x”.

B30: G86L: PYR1 mutant (protein, UniProt O49686 1-191, looked up, variant G86L)
Abscisic acid receptor PYR1: B1 Abscisic acid receptor PYR1 with A86L
In the case of B30, the “Mutations” value was “x”.

B31: L87C: PYR1 mutant (protein, UniProt O49686 1-191, looked up, variant L87C)
Abscisic acid receptor PYR1: B1 Abscisic acid receptor PYR1 with A86G, L87C
For the molecule B31, the “Mutations” value is given as “x”.

B32: L87S: PYR1 mutant (protein, UniProt O49686 1-191, looked up, variant L87S)
Abscisic acid receptor PYR1: B1 Abscisic acid receptor PYR1 with A86G, L87S
Consider B32, for which the “Mutations” value was “x”.

B33: G86E: PYR1 mutant (protein, UniProt O49686 1-191, looked up, variant G86E)
Abscisic acid receptor PYR1: B1 Abscisic acid receptor PYR1 with A86E
As to B33, the “Mutations” value is listed as “x”.

B34: G86K: PYR1 mutant (protein, UniProt O49686 1-191, looked up, variant G86K)
Abscisic acid receptor PYR1: B1 Abscisic acid receptor PYR1 with A86K
As to B34, the “Mutations” value is “x”.

B35: G86Y: PYR1 mutant (protein, UniProt O49686 1-191, looked up, variant G86Y)
Abscisic acid receptor PYR1: B1 Abscisic acid receptor PYR1 with A86Y
With B35, the “Mutations” value is given as “x”.

B36: G86H: PYR1 mutant (protein, UniProt O49686 1-191, looked up, variant G86H)
Abscisic acid receptor PYR1: B1 Abscisic acid receptor PYR1 with A86H
As to B36, the “Mutations” value is on record as “x”.

B37: L87Q: PYR1 mutant (protein, UniProt O49686 1-191, looked up, variant L87Q)
Abscisic acid receptor PYR1: B1 Abscisic acid receptor PYR1 with A86G, L87Q
Take B37: the “Mutations” value is recorded as “x”.

B38: G86D: PYR1 mutant (protein, UniProt O49686 1-191, looked up, variant G86D)
Abscisic acid receptor PYR1: B1 Abscisic acid receptor PYR1 with A86D
As for B38, the “Mutations” value is reported as “x”.
